Experimental data: doi:10.1101/2022.08.17.504347 (bioRxiv, 2022)

B1: human CENP-C fragment hCENP-C^760-943 (C-terminus of hCENP-C, wild type) (domain or fragment, UniProt Q03188-1 760-943, looked up)
chain: GRPSGGFVISGVLSPDTISSKRKAKENIGKVNKKSNKKRICLDNDERKTNLMVNLGIPLGDPLQPTRVKDPETREIILMDLVRPQDTYQFFVKHGELKVYKTLDTPFFSTGKLILGPQEEKGKQHVGQDILVFYVNFGDLLCTLHETPYILSTGDSFYVPSGNYYNIKNLRNEESVLLFTQIKR

How the values were obtained:
[1] = target: chicken CENP-C^677-864 (C-terminus of chicken CENP-C including the Cupin domain) (chicken); assay: crystal structure
native gel or EMSA = target: the molecule itself; assay: native gel or EMSA

Molecule | stoichiometry N [1] | binding result (native gel or EMSA)
chicken CENP-C^677-864 (C-terminus of chicken CENP-C including the Cupin domain) (domain or fragment) | 2 | –
B1 | – | binds
